Measured values taken from article PMC7246297.

Assays:
Assay in all cases: ELAA
Nucleocapsid (N) protein = Nucleocapsid (N) protein (SARS-CoV-2, UniProt P0DTC9 1-419)
[1] = target: Spike receptor-binding domain (S-RBD-Fc) (SARS-CoV-2, UniProt P0DTC2 319-541)
[2] = target: 3C-like protease (3CLpro) (SARS-CoV-2, UniProt P0DTD1 3264-3569)

Binder | binding result (Nucleocapsid (N) protein) | binding result [1] | binding result [2]
N Aptamer 3 (57 nt) (ssDNA) DNA: GCAATGGTACGGTACTTCCGGATGCGGAAACTGGCTAATTGGTGAGGCTGGGGCGGT | binds | – | –
N Aptamer 1 (88 nt) (ssDNA) DNA: GCAATGGTACGGTACTTCCGGATGCGGAAACTGGCTAATTGGTGAGGCTGGGGCGGTCGTGCAGCAAAAGTGCACGCTACTTTGCTAA | binds | – | –
N Aptamer 2 (78 nt) (ssDNA) DNA: GCAATGGTACGGTACTTCCGGATGCGGAAACTGGCTAATTGGTGAGGCTGGGGCGGTCGTGCAGCAAAAGTGCACGCT | binds | – | –
GCAATGGTACGGTACTTCCGGATGCGGAAACTG (ssDNA) [Aptamer n.c. (33 nt)] | no binding | no binding | no binding
